# US20260184794A1, “ANTIBODIES AGAINST INTEGRIN ALPHA 11 BETA 1 AND USES THEREOF” (Momenta Pharmaceuticals, Inc., priority 2022, published 2026)
# Target: T1, CHO-hu α11 (Homo sapiens, UniProt Q9UKX5)
# T1 construct: expressed in transfected cells; host or cells: CHO-K1
# Test: FACS antibody binding to CHO-K1 cells expressing human α11
# Settings: Table 13, 79E3E3 variants
# Method: 200,000 cells (wild-type CHO-K1 cells or CHO-K1 cells expressing human α11) were incubated with each antibody at desired concentrations in FACS buffer for 30 min at 4° C. Then, the cells were washed with FACS buffer and incubated with secondary antibody at 1:100 dilution for 30 minutes at 4° C. Cells were then washed and fixed with 1% PF A in PBS for 20 minutes at room temperature; washed again and read on a cytometer in FACS buffer.
# T1 sequence (Q9UKX5 23-1188): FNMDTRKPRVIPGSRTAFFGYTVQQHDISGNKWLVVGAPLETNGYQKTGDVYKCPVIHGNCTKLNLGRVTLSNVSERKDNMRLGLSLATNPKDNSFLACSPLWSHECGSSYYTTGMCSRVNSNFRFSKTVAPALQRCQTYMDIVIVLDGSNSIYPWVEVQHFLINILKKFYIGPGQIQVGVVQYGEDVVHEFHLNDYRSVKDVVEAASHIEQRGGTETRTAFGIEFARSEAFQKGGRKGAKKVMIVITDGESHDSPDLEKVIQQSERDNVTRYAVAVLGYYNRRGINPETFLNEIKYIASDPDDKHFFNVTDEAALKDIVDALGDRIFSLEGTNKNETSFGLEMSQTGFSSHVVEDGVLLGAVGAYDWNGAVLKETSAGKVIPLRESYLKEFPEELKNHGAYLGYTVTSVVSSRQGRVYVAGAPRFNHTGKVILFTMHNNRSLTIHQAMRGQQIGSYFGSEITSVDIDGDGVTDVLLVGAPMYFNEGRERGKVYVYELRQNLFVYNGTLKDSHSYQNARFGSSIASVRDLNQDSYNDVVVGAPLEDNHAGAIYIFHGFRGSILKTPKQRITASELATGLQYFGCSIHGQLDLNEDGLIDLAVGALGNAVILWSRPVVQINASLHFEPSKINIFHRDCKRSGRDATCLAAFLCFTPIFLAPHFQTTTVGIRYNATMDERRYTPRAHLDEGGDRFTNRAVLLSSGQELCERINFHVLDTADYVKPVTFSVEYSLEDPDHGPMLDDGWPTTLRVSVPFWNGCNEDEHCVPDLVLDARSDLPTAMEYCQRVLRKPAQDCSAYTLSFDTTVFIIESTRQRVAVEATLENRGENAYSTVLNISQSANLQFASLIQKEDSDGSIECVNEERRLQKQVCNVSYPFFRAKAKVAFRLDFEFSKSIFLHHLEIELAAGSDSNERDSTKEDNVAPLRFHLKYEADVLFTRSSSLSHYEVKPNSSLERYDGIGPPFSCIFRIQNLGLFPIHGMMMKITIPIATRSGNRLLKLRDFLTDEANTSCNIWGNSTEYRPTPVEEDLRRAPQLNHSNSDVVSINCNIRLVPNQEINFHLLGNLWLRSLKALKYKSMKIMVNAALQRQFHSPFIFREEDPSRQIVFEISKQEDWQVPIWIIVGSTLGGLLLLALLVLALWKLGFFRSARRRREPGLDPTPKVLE
# T1 sequence (P05556 21-798 partner): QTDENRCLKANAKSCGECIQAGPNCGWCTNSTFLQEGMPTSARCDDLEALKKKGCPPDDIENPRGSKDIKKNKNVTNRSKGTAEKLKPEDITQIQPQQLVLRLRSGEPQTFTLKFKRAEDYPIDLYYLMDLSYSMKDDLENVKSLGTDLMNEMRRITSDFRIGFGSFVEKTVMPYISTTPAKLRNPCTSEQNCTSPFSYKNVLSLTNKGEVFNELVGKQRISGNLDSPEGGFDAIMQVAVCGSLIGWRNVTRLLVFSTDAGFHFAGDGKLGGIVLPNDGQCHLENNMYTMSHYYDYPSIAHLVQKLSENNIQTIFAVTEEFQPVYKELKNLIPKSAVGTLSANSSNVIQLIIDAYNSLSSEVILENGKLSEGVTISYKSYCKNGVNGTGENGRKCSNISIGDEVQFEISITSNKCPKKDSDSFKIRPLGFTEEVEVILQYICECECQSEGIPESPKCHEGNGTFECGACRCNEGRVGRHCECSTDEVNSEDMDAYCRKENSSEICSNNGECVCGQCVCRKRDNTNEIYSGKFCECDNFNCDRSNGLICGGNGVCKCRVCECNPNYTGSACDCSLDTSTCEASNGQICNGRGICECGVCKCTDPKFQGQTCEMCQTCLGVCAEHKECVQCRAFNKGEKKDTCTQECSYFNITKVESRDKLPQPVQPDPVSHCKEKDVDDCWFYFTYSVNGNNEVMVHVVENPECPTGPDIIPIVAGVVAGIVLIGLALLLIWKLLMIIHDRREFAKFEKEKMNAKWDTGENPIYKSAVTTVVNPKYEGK
row,Molecule,EC50 [nM]
1,"A11BB133: 79E3E3 variant; VH SEQ ID NO: 4, VL SEQ ID NO: 21 (antibody, V domains shown) VH: QIQLVQSGSELKKPGASVKVSCKASGYTFTDYAMNWVRQAPGQGLEWMGWINTQTGKPTYAQGFTGRFVFSLDTSVSTAYLQISSLKAEDTAVYYCTRLGTGNTKGFAYWGQGTLVTVSS VL: DIQITQSPSSLSASVGDRVTITCKSSQSLLYSENNQDYLAWYQQKPGKVPKLLIYGASNRHTGVPSRFSGSGSGTDFTLTISSLQPEDVATYYCEQTYRYPFTFGQGTKLEIK",5.13
2,"A11BB134: 79E3E3 variant; VH SEQ ID NO: 10, VL SEQ ID NO: 22 (antibody, V domains shown) VH: QIQLVQSGSELKKPGASVKISCKASGYTFTDYAMNWVKQAPGQGLEWMGWINTQTGKPTYAQGFTGRFVFSLDTSVSTAYLQISSLKAEDTAVYFCTRLGTGNTKGFAYWGQGTLVTVSS VL: DIQMTQSPSSLSASVGDRVTITCKSSQSLLYSENNQDYLAWYQQKPGKVPKLLIYGASNRHTGVPSRFSGSGSGTDFTLTISSLQPEDVATYYCEQTYRYPFTFGQGTKLEIK",3.49
3,"A11BB136: 79E3E3 variant; VH SEQ ID NO: 14, VL SEQ ID NO: 22 (antibody, V domains shown) VH: QIQLVQSGSELKKPGASVKVSCKASGYTFTDYAMNWVRQAPGQGLEWMGWINTQTGKPTYAQGFTGRFVFSLDTSVSTAYLQISSLKAEDTAVYFCTRLGTGNTKGFAYWGQGTLVTVSS VL: DIQMTQSPSSLSASVGDRVTITCKSSQSLLYSENNQDYLAWYQQKPGKVPKLLIYGASNRHTGVPSRFSGSGSGTDFTLTISSLQPEDVATYYCEQTYRYPFTFGQGTKLEIK",1.92
4,"A11BB138: 79E3E3 variant; VH SEQ ID NO: 12, VL SEQ ID NO: 21 (antibody, V domains shown) VH: QIQLVQSGSELKKPGASVKISCKASGYTFTDYAMNWVRQAPGQGLEWMGWINTQTGKPTYAQGFTGRFVFSLDTSVSTAYLQISSLKAEDTAVYFCTRLGTGNTKGFAYWGQGTLVTVSS VL: DIQITQSPSSLSASVGDRVTITCKSSQSLLYSENNQDYLAWYQQKPGKVPKLLIYGASNRHTGVPSRFSGSGSGTDFTLTISSLQPEDVATYYCEQTYRYPFTFGQGTKLEIK",4.63
5,"A11BB139: 79E3E3 variant; VH SEQ ID NO: 5, VL SEQ ID NO: 22 (antibody, V domains shown) VH: QIQLVQSGAEVKKPGSSVKVSCKASGYTFTDYAMNWVRQAPGQGLEWMGWINTQTGKPTYAQKFQGRVTFTLDESTSTAYMELSSLRSEDTAVYYCTRLGTGNTKGFAYWGQGTLVTVSS VL: DIQMTQSPSSLSASVGDRVTITCKSSQSLLYSENNQDYLAWYQQKPGKVPKLLIYGASNRHTGVPSRFSGSGSGTDFTLTISSLQPEDVATYYCEQTYRYPFTFGQGTKLEIK",1.98
6,"A11BB140: 79E3E3 variant; VH SEQ ID NO: 7, VL SEQ ID NO: 22 (antibody, V domains shown) VH: QIQLVQSGAEVKKPGSSVKVSCKASGYTFTDYAMNWVRQAPGQGLEWMGWINTQTGKPTYAQKFQGRVTFTLDESTSTTYMELSSLRSEDTAVYYCTRLGTGNTKGFAYWGQGTLVTVSS VL: DIQMTQSPSSLSASVGDRVTITCKSSQSLLYSENNQDYLAWYQQKPGKVPKLLIYGASNRHTGVPSRFSGSGSGTDFTLTISSLQPEDVATYYCEQTYRYPFTFGQGTKLEIK",2.5
7,"A11BB141: 79E3E3 variant; VH SEQ ID NO: 7, VL SEQ ID NO: 19 (antibody, V domains shown) VH: QIQLVQSGAEVKKPGSSVKVSCKASGYTFTDYAMNWVRQAPGQGLEWMGWINTQTGKPTYAQKFQGRVTFTLDESTSTTYMELSSLRSEDTAVYYCTRLGTGNTKGFAYWGQGTLVTVSS VL: DIQITQSPSSLSASVGDRVTITCKSSQSLLYSENNQDYLAWYQQKPGKVPKLLIYGASNRHTGVPSRFSGSGSGTDFTLTISSLQPEDVATYYCEQTYRYPFTFGQGTKLEIK",4.6
8,"A11BB142: 79E3E3 variant; VH SEQ ID NO: 6, VL SEQ ID NO: 22 (antibody, V domains shown) VH: QIQLVQSGAEVKKPGSSVKVSCKASGYTFTDYAMNWVRQAPGQGLEWMGWINTQTGKPTYAQKFQGRVTFTLDESTSTTYMELSSLRSEDTAVYYCARLGTGNTKGFAYWGQGTLVTVSS VL: DIQMTQSPSSLSASVGDRVTITCKSSQSLLYSENNQDYLAWYQQKPGKVPKLLIYGASNRHTGVPSRFSGSGSGTDFTLTISSLQPEDVATYYCEQTYRYPFTFGQGTKLEIK",2.07
9,"A11BB143: 79E3E3 variant; VH SEQ ID NO: 15, VL SEQ ID NO: 22 (antibody, V domains shown) VH: QVQLVQSGAEVKKPGSSVKVSCKASGYTFTDYAMNWVRQAPGQGLEWMGWINTQTGKPTYAQKFQGRVTFTLDESTSTAYMELSSLRSEDTAVYYCTRLGTGNTKGFAYWGQGTLVTVSS VL: DIQMTQSPSSLSASVGDRVTITCKSSQSLLYSENNQDYLAWYQQKPGKVPKLLIYGASNRHTGVPSRFSGSGSGTDFTLTISSLQPEDVATYYCEQTYRYPFTFGQGTKLEIK",2.12
10,"A11BB131: 79E3E3 variant; VH SEQ ID NO: 11, VL SEQ ID NO: 21 (antibody, V domains shown) VH: QIQLVQSGSELKKPGASVKISCKASGYTFTDYAMNWVRQAPGQGLEWMGWINTQTGKPTYAQGFTGRFVFSLDTSVRTAYLQISSLKAEDTAVYFCTRLGTGNTKGFAYWGQGTLVTVSS VL: DIQITQSPSSLSASVGDRVTITCKSSQSLLYSENNQDYLAWYQQKPGKVPKLLIYGASNRHTGVPSRFSGSGSGTDFTLTISSLQPEDVATYYCEQTYRYPFTFGQGTKLEIK",2.49

# Target: T1, CHO-hu α11
# Test: Cell adhesion inhibition on type I collagen (xCelligence)
# Type: cell-based
# Settings: Table 12, 16E10 variants, FIG. 5B; read-out: CHO-α11 Adhesion Inhibition IC50
# Method: 0.6×10^6 cells/mL were incubated with each antibody at a range of concentrations for 20 minutes at 37° C. E-Plate VIEW 96 PET plate coated with 100 ng/ml type I collagen or PBS overnight at room temperature was blocked in 3% BSA for 1 hour at room temperature. After washing the plate with PBS, cell and antibody mixture was added to the wells and the plate was places into an xCelligence machine. Cell adhesion was recorded over 6 hours. The time point of maximum cell adhesion was used for comparison relative to control.
row,Molecule,IC50 [nM]
1,"A11BB112: 16E10 variant; VH SEQ ID NO: 49, VL SEQ ID NO: 61 (antibody, V domains shown) VH: EVQLLESGGGLVQPGGSLRLSCAASGFSFSSSYYMCWVRQAPGKGLEWVSCIGTTRGSTYYADSVKGRFTISRDNSKNTLYLQMNSLRAEDTAVYYCARDATGYRINTIGLYFNLWGQGTLVTVSS VL: DIVMTQSPDSLAVSLGERATINCQASQTIYSYLSWYQQKPGQPPKLLIYEASKLASGVPDRFSGSGSGTDYTLTISSLQAEDVAVYYCQSYHGTASTEYNTFGGGTKVEIK",0.5
2,"A11BB114: 16E10 variant; VH SEQ ID NO: 50, VL SEQ ID NO: 61 (antibody, V domains shown) VH: EVQLLESGGGLVQPGGSLRLSCAASGFSFSSSYYMCWVRQAPGKGLEWVSCIGTTRGSTYYADSVKGRFTISRDNSKNTVYLQMNSLRAEDTAVYYCARDATGYRINTIGLYFNLWGQGTLVTVSS VL: DIVMTQSPDSLAVSLGERATINCQASQTIYSYLSWYQQKPGQPPKLLIYEASKLASGVPDRFSGSGSGTDYTLTISSLQAEDVAVYYCQSYHGTASTEYNTFGGGTKVEIK",0.5
3,"A11BB117: 16E10 variant; VH SEQ ID NO: 56, VL SEQ ID NO: 61 (antibody, V domains shown) VH: EVQLLESGGGLVQPGGSLRLSCAASGFSFSSSYYMSWVRQAPGKGLEWVSAIGTTRGSTYYADSVKGRFTISRDSSKNTVYLQMNSLRAEDTAVYFCARDATGYRINTIGLYFNLWGQGTLVTVSS VL: DIVMTQSPDSLAVSLGERATINCQASQTIYSYLSWYQQKPGQPPKLLIYEASKLASGVPDRFSGSGSGTDYTLTISSLQAEDVAVYYCQSYHGTASTEYNTFGGGTKVEIK",0.7
4,"A11BB119: 16E10 variant; VH SEQ ID NO: 45, VL SEQ ID NO: 61 (antibody, V domains shown) VH: EVQLLESGGGLVQPGGSLRLSCAASGFSFSSSYYMAWVRQAPGKGLEWVSAIGTTRGSTYYADSVKGRFTISRDNSKNTLYLQMNSLRAEDTAVYYCARDATGYRINTIGLYFNLWGQGTLVTVSS VL: DIVMTQSPDSLAVSLGERATINCQASQTIYSYLSWYQQKPGQPPKLLIYEASKLASGVPDRFSGSGSGTDYTLTISSLQAEDVAVYYCQSYHGTASTEYNTFGGGTKVEIK",0.7
5,"A11BB121: 16E10 variant; VH SEQ ID NO: 53, VL SEQ ID NO: 61 (antibody, V domains shown) VH: EVQLLESGGGLVQPGGSLRLSCAASGFSFSSSYYMSWVRQAPGKGLEWVSAIGTTRGSTYYADSVKGRFTISRDNSKNTLYLQMNSLRAEDTAVYYCARDATGYRINTIGLYFNLWGQGTLVTVSS VL: DIVMTQSPDSLAVSLGERATINCQASQTIYSYLSWYQQKPGQPPKLLIYEASKLASGVPDRFSGSGSGTDYTLTISSLQAEDVAVYYCQSYHGTASTEYNTFGGGTKVEIK",0.5
6,"A11BB123: 16E10 variant; VH SEQ ID NO: 47, VL SEQ ID NO: 61 (antibody, V domains shown) VH: EVQLLESGGGLVQPGGSLRLSCAASGFSFSSSYYMAWVRQAPGKGLEWVSAIGTTRGSTYYADSVKGRFTISRDSSKNTLYLQMNSLRAEDTAVYYCARDATGYRINTIGLYFNLWGQGTLVTVSS VL: DIVMTQSPDSLAVSLGERATINCQASQTIYSYLSWYQQKPGQPPKLLIYEASKLASGVPDRFSGSGSGTDYTLTISSLQAEDVAVYYCQSYHGTASTEYNTFGGGTKVEIK",0.5
